Four molecules from patent US20240218070A1 (MERUS N V, published 2024) can be followed below.

The chains are these.
T1: huFAP-His recombinant protein (R&D Systems cat. #3715-SE) (human, UniProt Q12884 26-760)
T1 construct: Bought His-tagged recombinant protein; also called huFAP protein; human FAP (R&D, cat. No. 3715-SE)
T1 sequence: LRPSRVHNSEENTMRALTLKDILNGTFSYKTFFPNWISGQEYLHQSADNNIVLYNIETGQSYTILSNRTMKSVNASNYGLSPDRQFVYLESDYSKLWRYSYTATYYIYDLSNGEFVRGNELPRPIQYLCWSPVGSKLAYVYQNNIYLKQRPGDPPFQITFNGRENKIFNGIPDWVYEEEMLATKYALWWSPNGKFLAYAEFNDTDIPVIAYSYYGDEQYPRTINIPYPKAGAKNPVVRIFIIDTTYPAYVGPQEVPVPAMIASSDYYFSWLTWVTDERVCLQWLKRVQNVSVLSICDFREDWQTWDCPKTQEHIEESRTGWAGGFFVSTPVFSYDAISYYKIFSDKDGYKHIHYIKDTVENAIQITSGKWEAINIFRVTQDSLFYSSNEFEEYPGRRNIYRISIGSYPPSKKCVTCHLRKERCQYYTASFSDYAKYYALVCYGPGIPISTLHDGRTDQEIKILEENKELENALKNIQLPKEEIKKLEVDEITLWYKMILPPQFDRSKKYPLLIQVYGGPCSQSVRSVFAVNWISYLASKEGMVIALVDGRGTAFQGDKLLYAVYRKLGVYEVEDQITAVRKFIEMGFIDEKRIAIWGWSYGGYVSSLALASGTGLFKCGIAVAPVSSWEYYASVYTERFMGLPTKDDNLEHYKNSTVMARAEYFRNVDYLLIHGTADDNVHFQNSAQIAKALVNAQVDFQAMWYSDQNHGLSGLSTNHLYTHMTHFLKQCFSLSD

B1: anti-human FAP bivalent monospecific IgG comprising heavy chain variable region SEQ ID NO: 19 (antibody, V domains shown)
VH: EVQLVESGGGLVKPGGSLRLSCAASGFPFNYAWMSWVRQAPGKGLEWVGRIKPKTSGGATDYAAPVKDRFTISRDDSRNTLYLQMNSLKTEDTAVYYCSAREDIWNFFFDLWGQGTLVTVSS
VL: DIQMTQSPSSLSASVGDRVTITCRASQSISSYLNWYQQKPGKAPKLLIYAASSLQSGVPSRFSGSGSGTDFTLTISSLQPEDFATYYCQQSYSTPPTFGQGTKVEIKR
notes: IgG1 format, common light chain VK1-39/JK1
B2: anti-human FAP bivalent monospecific IgG comprising heavy chain variable region SEQ ID NO: 11 (antibody, V domains shown)
VH: EVQLVESGGGLVQPGGSLRLSCAASGFTFSSYAMIWVRQAPGKGLEWVSAISGSGGYTFNADSVKGRFTMSRDNSKNTLYLQMNSLRAEDTAVYYCAKRDGGYEGGAFDIWGQGTLVTVSS
VL: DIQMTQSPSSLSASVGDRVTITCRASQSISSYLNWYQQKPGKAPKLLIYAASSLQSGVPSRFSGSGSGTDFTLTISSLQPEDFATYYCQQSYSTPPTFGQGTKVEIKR
notes: as for B1
B3: anti-human FAP bivalent monospecific IgG comprising heavy chain variable region SEQ ID NO: 69 (antibody, V domains shown)
VH: EVQLVETGGGLIQPGGSLRLSCAASGFTVSSNYMSWVRQAPGKGLEWVSVIYSGGSTYYADSVKGRFTISRDNSKNTLYLQMNSLRAEDTAVYYCARGPTDAYPYLDYLWGQGTLVTVSS
VL: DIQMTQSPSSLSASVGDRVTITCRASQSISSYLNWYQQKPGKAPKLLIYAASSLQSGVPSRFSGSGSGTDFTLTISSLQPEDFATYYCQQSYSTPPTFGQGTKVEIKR
notes: IgG1 format, common light chain VK1-39/JK1; also called human/mouse cross-reactive FAP IgG
B4: anti-human FAP bivalent monospecific IgG comprising heavy chain variable region SEQ ID NO: 15 (antibody, V domains shown)
VH: QLQLQESGPGLVKPSETLSLTCTVSGGSISSSSYFWAWIRQPPGKGLEFIGNIYYSGSTYYNPSLKSRVTISVDTSKNQFSLKLSSVTAADTAVYYCARPSYYGSGNYYFAFWGQGTLVTVSS
VL: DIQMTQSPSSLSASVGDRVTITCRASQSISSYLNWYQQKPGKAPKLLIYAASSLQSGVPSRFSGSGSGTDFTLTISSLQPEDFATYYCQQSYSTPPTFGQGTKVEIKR
notes: as for B1

Sequence of human CD26 (huCD26) expressed on 293FF cells (P27487 whole entry): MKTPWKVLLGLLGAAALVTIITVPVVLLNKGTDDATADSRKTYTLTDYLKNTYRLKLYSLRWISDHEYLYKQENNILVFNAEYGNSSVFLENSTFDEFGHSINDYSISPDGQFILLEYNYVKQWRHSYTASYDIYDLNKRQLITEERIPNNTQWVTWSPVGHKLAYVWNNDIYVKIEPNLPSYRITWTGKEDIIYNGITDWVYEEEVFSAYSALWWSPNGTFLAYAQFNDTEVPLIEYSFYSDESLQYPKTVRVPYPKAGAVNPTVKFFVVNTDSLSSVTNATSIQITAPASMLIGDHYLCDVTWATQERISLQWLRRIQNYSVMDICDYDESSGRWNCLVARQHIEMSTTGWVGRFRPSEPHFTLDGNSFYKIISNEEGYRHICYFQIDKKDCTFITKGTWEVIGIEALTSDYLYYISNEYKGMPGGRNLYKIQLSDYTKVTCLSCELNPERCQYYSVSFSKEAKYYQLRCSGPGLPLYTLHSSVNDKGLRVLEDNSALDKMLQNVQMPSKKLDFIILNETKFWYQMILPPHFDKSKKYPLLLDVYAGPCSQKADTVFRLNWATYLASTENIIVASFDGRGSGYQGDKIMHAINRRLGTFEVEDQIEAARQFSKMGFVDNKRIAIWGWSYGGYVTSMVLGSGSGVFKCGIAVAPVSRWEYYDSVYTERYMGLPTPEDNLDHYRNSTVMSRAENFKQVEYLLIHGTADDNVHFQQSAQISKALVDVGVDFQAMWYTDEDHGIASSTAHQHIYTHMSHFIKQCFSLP

One experiment deals with human CD26 (huCD26) expressed on 293FF cells (human, UniProt P27487 1-766). Kind of experiment: FACS, 293FF cells transiently transfected with huCD26. The protocol:
The binding of all test and control antibodies to the cells was tested at a single concentration of 2.5 ug/ml. Goat-anti-human IgG F(ab)2-PE (Invitrogen, H10104) was used as secondary antibody (1:100 in FACS buffer). Ab0625 was used at 10 ug/ml and its binding was detected using Ab0250 (Becton Dickinson, 550767) (1:100 in FACS buffer). The FACS buffer containing PBS (Gibco, cat. #10010-015), 0.5% BSA (Thermo Scientific, cat. #37525), and 2 mM EDTA (Invitrogen, cat. #15575-020) was kept ice cold throughout the assay.
The target cells were harvested, counted, and centrifuged for 5 min at 300 g at 4 °C. Cells were then resuspended in FACS buffer at a concentration of 1×10⁶ cells/ml and transferred (200,000 cells/well) to a U-bottom 96-well FACS plate (BD, cat. #353910). Cells were then centrifuged for 3 min at 300 g at 4° C. and supernatant was discarded. 50 μl of primary antibody solutions were added to the cells, mixed, and incubated for 30 min at 2-8° C. in the dark. Cells were washed by adding 150 μl FACS buffer and centrifuged for 3 min at 300 g at 4° C. Supernatant was discarded, and cells were washed again by adding 200 μl FACS buffer to the plate. Cells were then centrifuged for 3 min at 300 g at 4° C. and afterwards the supernatant was discarded. 50 μl of secondary antibody solutions were added to the cells, mixed, and incubated for 30 min at 2-8° C. in the dark. Cells were then washed by adding 150 μl FACS buffer to the plate and centrifuged for 3 min at 300 g at 4° ° C. Supernatant was discarded and cells were washed again by adding 200 μl FACS buffer to the plate and centrifuged for 3 min at 300 g at 4° C. Supernatant was discarded and cells were fixated by adding 100 μl/well ice-cold Fixation buffer (2% formaldehyde solution in PBS, Sigma-Aldrich, cat. #47608-250ML-F). Cells were incubated for 15 min on ice in the dark. Afterwards, 100 μl ice-cold PBS was added to the cells and cells were centrifuged for 3 at 300 g at 4° C. Supernatant was discarded and cells were resuspended in 120 μl FACS buffer.
Background: In flow cytometry, cells or beads pass a laser one at a time.
Consider B1, for which the binding result is on record as “no binding (tested: 2.5 ug/ml)”.

Take B2: the binding result was “no binding (tested: 2.5 ug/ml)”. Consider B3, for which the binding result is listed as “no binding (tested: 2.5 ug/ml)”. Still for that read-out and setting: then B4, with “no binding (tested: 2.5 ug/ml)”.

The target in the next experiment is T1, huFAP-His recombinant protein (R&D …). The experiment is described as follows: competition ELISA, huFAP-His coated, IgG at 0.05 ug/ml; competitor sibrotuzumab analog Fab. As for the experimental part: ELISA was used to investigate the competitive binding of the human anti-FAP antibody panel with Fab fragments generated from the sibrotuzumab analog to huFAP-His protein (R&D Systems cat. #3715-SE).
The huFAP-His protein was coated (0.5 ug/ml, 50 μl/well) on two 96-wells ELISA plates (Certified Nunc-Immuno Maxisorp F96, Greiner Bio-One, cat. #655061). The plates were sealed (EASYseal, Greiner, cat. #676001) and incubated overnight at 4° ° C. The plates were washed with PBS/0.05% Tween 20 (PBS, Gibco, cat. #10010-015) (Tween 20, Merck, cat. #8.22184.0500) using the ELISA plate washer (BioTek 405 TS). Afterwards, the plates were emptied. Fab fragments of sibrotuzumab analog (25 ug/ml) were incubated on one plate for 30 min at RT, whereas the second plate was incubated with 300 μl/well PBS/2% BSA block buffer (BSA, Sigma, cat. #A3294-500 g) for 1 hour at RT. Afterwards, the plates were emptied. Antibodies from the human anti-FAP panel (0.05 ug/ml, 50 μl/well) were added, plates were covered with a EASYseal, and incubated for one hour at RT. The plates were washed three times with wash buffer using the ELISA washer and emptied. […] The plates were then washed three times with wash buffer using the ELISA washer and emptied. BD OptEIATMB Substrate Reagent Set (BD, cat. #555214) was then added to the wells (50 μl/well) and developed for maximal 10 min. Afterwards, 1 M H2SO4 (50 μl/well) was added to the wells to stop the staining reaction (color changes from blue to yellow). The plates were then measured using an ELISA plate reader (BioTek ELx808).
In general terms: ELISA stands for enzyme-linked immunosorbent assay.
Consider B1, for which the binding result was “binds”. As for B2, the binding result was “binds”.

In the case of B4, the binding result was “binds”.
